This data set deals with biosensor SEQ ID NO:47 (KbiotinkkafpaayiaeG-photo-cleavable linker-…rrrqrrkkr).

The values below come from patent US20170101664.

B1: Lyn kinase (protein)
chain: MGCIKSKGKDSLSDDGVDLKTQPVRNTERTIYVRDPTSNKQQRPVPESQLLPGQRFQTKDPEEQGDIVVALYPYDGIHPDDLSFKKGEKMKVLEEHGEWWKAKSLLTKKEGFIPSNYVAKLNTLETEEWFFKDITRKDAERQLLAPGNSAGAFLIRESETLKGSFSLSVRDFDPVHGDVIKHYKIRSLDNGGYYISPRITFPCISDMIKHYQKQADGLCRRLEKACISPKPQKPWDKDAWEIPRESIKLVKRLGAGQFGEVWMGYYNNSTKVAVKTLKPGTMSVQAFLEEANLMKTLQHDKLVRLYAVVTREEPIYIITEYMAKGSLLDFLKSDEGGKVLLPKLIDFSAQIAEGMAYIERKNYIHRDLRAANVLVSESLMCKIADFGLARVIEDNEYTAREGAKFPIKWTAPEAINFGCFTIKSDVWSFGILLYEIVTYGKIPYPGRTNADVMTALSQGYRMPRVENCPDELYDIMKMCWKEKAEERPTFDYLQSVLDDFYTATEGQYQQQP
Regarding B1, the “phosphorylation in the in vitro kinase assay” value is “Lyn kinase did not phosphorylate the biosensor”.
